Where “and” joins values, the source holds several entries; their conditions need not be identical. Equal values may be shown once.
Key:
[1] = target: Histidine-tagged INT-interacting MVP domains (His-iMVP), major vault protein domains 3 to 5; assay: SPR; Biacore 3000, His-iMVP amine-coupled to CM5 (410, 1860 or 1240 RU), His-INT or variant injected, 25 °C, 50 mM PBS, 150 mM NaCl, pH 7.4; 1-to-1 Langmuir fit; apparent constants
[2] = target: Histidine-tagged INT-interacting MVP domains (His-iMVP), major vault protein domains 3 to 5; assay: SEC; His-iMVP and His-INT mixed at equimolar ratio (70 μM), overnight at 4 °C, Superdex 75 10/300 GL; band densities of peak fractions on SDS-PAGE

Kd [1]	T1/2 [1]	koff [1]	kon [1]	stoichiometry N [1]	stoichiometry N [2]	Binder
1.8 µM	9.4 min	0.00089 s⁻¹	485 M⁻¹ s⁻¹	1		His-INTΔC15 (His-INT with 15 amino acids deleted at the C terminus) (domain or fragment) CIQHWQDAVPWTELLSLQTEDGFWKLTPELGLILNLNTNGLHSFLKQKGIQSLGVKGRECLLDLIATMLVLQFIRTRLEKEGIVFKSLMKMDDASISRNIPWAFEAIKQASEWVRRTEGQYPSICPRLELGNDWDSATKQLLGLQPI
0.262 µM	13.9 min	0.0006 s⁻¹	2280 M⁻¹ s⁻¹	1	1 and 2	Histidine-tagged vault-interacting domain of vault poly(ADP-ribose)-polymerase (His-INT) (domain or fragment) CIQHWQDAVPWTELLSLQTEDGFWKLTPELGLILNLNTNGLHSFLKQKGIQSLGVKGRECLLDLIATMLVLQFIRTRLEKEGIVFKSLMKMDDASISRNIPWAFEAIKQASEWVRRTEGQYPSICPRLELGNDWDSATKQLLGLQPISTVSPLHRVLHYSQG

From publication PMC5665922
